Series [1] has as its system 21G (DNA, G4) GGGTTAGGGTTAGGGTTAGGG
Put plainly: EMSA, inhibition of Topo IIIα binding. As to conditions: 100 mM NaCl; 50 mM HEPES pH 7.9, room temperature; 50 nM Topo IIIα displaced; 20 nM DNA; indirect. For orientation: In EMSA bound probe runs differently from free probe, usually more slowly.

The subject of series [2] is Wt26 (DNA, G4) TTAGGGTTAGGGTTAGGGTTAGGGTT
Kind of series: EMSA, inhibition of hPOT1 binding. As to conditions: 100 mM NaCl; 50 mM HEPES pH 7.9, room temperature; 30 nM hPOT1 displaced; 20 nM DNA; indirect.

Series [3] deals with 21Gmu (21G mu3) (DNA, single strand) GGCTTACGGTTAGCGTTAGGG
Kind of series: EMSA, inhibition of Topo IIIα binding. The note with it: 100 mM NaCl; 50 mM HEPES pH 7.9, room temperature; 50 nM Topo IIIα displaced; 20 nM DNA; indirect.

Series [4] deals with Wt26 (DNA, G4) TTAGGGTTAGGGTTAGGGTTAGGGTT
Put plainly: EMSA, inhibition of Topo IIIα binding. As to conditions: 100 mM NaCl; 50 mM HEPES pH 7.9, room temperature; 50 nM Topo IIIα displaced; 20 nM DNA; indirect.

Series [5] deals with S310 (DNA, single strand) CCAGCTCTGCTTTGCATCTTT
Kind of series: EMSA, inhibition of Topo IIIα binding. The note with it: 100 mM NaCl; 50 mM HEPES pH 7.9, room temperature; 50 nM Topo IIIα; 20 nM DNA; up to 10 µM telomestatin; indirect.

The target in series [6] is T1, Topoisomerase IIIα (Topo III) (human, UniProt Q13472 1-1001).
T1 sequence: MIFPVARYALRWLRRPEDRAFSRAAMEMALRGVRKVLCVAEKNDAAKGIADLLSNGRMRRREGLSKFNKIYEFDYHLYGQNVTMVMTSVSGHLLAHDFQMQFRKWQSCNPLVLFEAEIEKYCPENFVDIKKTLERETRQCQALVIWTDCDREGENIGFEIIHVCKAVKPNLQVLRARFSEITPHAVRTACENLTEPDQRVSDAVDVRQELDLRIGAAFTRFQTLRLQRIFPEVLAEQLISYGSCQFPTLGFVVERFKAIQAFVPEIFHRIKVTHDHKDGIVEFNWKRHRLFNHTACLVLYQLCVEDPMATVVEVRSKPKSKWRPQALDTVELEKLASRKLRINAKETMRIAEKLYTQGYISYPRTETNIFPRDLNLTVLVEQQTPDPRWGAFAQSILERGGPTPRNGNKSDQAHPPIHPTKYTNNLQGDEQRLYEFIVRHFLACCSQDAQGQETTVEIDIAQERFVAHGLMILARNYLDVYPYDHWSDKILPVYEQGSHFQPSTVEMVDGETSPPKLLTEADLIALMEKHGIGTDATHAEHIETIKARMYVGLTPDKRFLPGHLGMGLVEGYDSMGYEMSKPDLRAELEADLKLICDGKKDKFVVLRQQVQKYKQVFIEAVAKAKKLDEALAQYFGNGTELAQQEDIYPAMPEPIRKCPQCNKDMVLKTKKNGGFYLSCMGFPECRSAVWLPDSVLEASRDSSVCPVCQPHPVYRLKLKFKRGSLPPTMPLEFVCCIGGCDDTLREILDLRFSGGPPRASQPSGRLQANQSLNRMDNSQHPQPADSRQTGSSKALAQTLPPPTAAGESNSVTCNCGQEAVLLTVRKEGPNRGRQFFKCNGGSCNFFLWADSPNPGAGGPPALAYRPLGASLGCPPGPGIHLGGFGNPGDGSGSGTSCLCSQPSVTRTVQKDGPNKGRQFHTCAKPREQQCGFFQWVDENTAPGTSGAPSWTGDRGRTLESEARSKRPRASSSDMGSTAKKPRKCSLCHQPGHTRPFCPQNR
Kind of series: EMSA; no telomestatin; 50 mM HEPES pH 7.9, 100 mM NaCl, 0.1 mM EDTA, 4% sucrose, 2% glycerol, 0.1 mg/mL BSA, 0.02% bromophenol blue, 20 nM probe, room temperature 30 min; 1% agarose. The note with it: protein: recombinant.

In series [7] the target is T1, Topoisomerase IIIα (Topo III). Put plainly: competition; unlabelled competitor vs 32P-24C; more potent than Pu22myc; non-G4 IC50s 4.3-10.1-fold lower than G4 oligos overall; 50 mM HEPES pH 7.9, 100 mM NaCl, 0.1 mM EDTA, 4% sucrose, 2% glycerol, 0.1 mg/mL BSA, 0.02% bromophenol blue, 20 nM probe, room temperature 30 min; 1% agarose. As to conditions: protein: recombinant; single strand, cannot form G4.

Series [8] has the same target. Kind of series: competition; unlabelled competitor vs 32P-24C (20 nM), Topo III 50 nM; 50 mM HEPES pH 7.9, 100 mM NaCl, 0.1 mM EDTA, 4% sucrose, 2% glycerol, 0.1 mg/mL BSA, 0.02% bromophenol blue, 20 nM probe, room temperature 30 min; 1% agarose. The note with it: protein: recombinant; G4-forming.
Series [9] has the same target. Kind of series: EMSA; no ligand; probe 20 nM, Topo III 50 nM; 50 mM HEPES pH 7.9, 100 mM NaCl, 0.1 mM EDTA, 4% sucrose, 2% glycerol, 0.1 mg/mL BSA, 0.02% bromophenol blue, 20 nM probe, room temperature 30 min; 1% agarose. As to conditions: protein: recombinant; label: 32P; single strand.
Another series addresses T2, hPOT1 (human, UniProt Q9NUX5 1-634).
T2 sequence: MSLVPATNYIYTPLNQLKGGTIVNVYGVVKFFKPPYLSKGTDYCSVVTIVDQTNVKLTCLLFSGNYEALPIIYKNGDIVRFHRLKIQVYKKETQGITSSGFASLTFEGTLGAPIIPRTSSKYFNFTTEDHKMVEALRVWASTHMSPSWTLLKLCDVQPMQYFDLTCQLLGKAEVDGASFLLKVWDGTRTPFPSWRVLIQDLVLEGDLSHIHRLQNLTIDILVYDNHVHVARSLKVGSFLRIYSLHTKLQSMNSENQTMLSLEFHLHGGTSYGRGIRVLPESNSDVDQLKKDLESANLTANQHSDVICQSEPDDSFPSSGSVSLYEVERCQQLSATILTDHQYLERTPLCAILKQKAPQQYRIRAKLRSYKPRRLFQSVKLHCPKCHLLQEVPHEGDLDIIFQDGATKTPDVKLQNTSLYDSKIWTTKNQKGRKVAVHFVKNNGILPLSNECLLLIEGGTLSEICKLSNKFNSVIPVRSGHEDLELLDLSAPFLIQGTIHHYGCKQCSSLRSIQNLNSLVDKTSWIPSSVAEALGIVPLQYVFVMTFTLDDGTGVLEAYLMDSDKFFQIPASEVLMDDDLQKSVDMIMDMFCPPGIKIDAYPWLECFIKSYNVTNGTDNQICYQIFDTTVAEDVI
Put plainly: EMSA; no telomestatin; POT1 30 nM, probe 20 nM; 50 mM HEPES pH 7.9, 100 mM NaCl, 0.1 mM EDTA, 4% sucrose, 2% glycerol, 0.1 mg/mL BSA, 0.02% bromophenol blue, 20 nM probe, room temperature 30 min; 1% agarose. The note with it: protein: recombinant; label: 32P; G4-forming.

Broadly, the IC50 is the concentration that gives 50% inhibition. Lower therefore signals higher potency.

For the molecule `Cc1oc2nc1-c1nc(co1)-c1nc(co1)-c1nc(co1)-c1nc(co1)-c1nc(co1)C1=NC(CS1)c1nc-2c(C)o1` (stereo not shown), the half-maximal inhibitory concentration (IC50) was 300 nM in [1], 100 nM in series [2], above 10000 nM in series [3] and 60 nM in series [4]. For the same molecule, in series [5], the binding entry is recorded as “no”.
Consider GGCTTACGGTTAGCGTTAGGG (ssDNA) [21G mu3 (21Gmu)], for which the binding result in [6] (label: 32P when used as probe, single strand, cannot form G4) is on record as “binds”.
Consider CCAGCTCTGCTTTGCATCTTT (ssDNA) [S310], for which the binding result in series [6] (label: 32P) is recorded as “binds”.
With GAGGGTGAAGAGGGTGGGGAAG (ssDNA) [Pu22mu], the binding result in [7] is listed as “binds”.
Regarding GAGGGTGGGGAGGGTGGGGAAG (structured_DNA) [Pu22myc], the binding signal in [8] was ~3 fold higher concentration than Pu22mu needed to inhibit binding.
On to CCCTAACCCTAACCCTAACCCTAA (ssDNA) [24C], for which, in series [9], the binding result is “binds”.
On to TTAGGGTTAGGGTTAGGGTTAGGGTT (structured_DNA) [Wt26], for which the binding result is recorded as “binds” in series [6] (label: 32P, G4-forming) and “binds” with hPOT1.
As to GGGTTAGGGTTAGGGTTAGGG (structured_DNA) [21G], the binding result in series [6] (label: 32P when used as probe, G4-forming) is “binds”.

For the origin of these results see publication PMC2732903.
